{"source": "patent US20060222643A1", "about": "(Chugai, published 2006)", "binders": {"B1": {"name": "anti-human Mpl antibody VB22B IgG (antibody, V domains shown)", "VH": "QVQLQQSGPELVKPGASVKISCKASGYAFTNSWMNWVKQRPGKGLEWIGRIYPGDGETIYNGKFRVKATLTADKSSSTAYMDISSLTSEDSAVYFCARGYDDYSFAYWGQGTLVTVSA", "VL": "DIVMTQAAPSIPVTPGESVSISCRSSKSLLHSNGNTYLYWFLQRPGQSPQLLIYRMSNLASGVPDRFSGSGSGTAFTLRISRVEAEDVGVYYCMQHIEYPFTFGSGTKLEIK", "notes": "also called murine antibody VB22B"}}, "key": {"[1]": {"target": "T1, MG10 (Gln213 to Ala231)-GST fusion protein (human, also: fused with GST)", "T1 construct": "As MG1; also called MG10-GST fusion protein; GST fusion protein containing MG10; not shown: glutathione-S-transferase of vector pGEX-4T-3 (Amersham Biosciences)", "T1 chain": "QPTMPWQDGPKQTSPSREA", "test": "SPR, Biacore 3000, MG10-GST immobilized on CM5, Bivalent analyte model (constants as for the monovalent antibody), triplicate", "procedure": "The Sensor Chip CM5 (Biacore) was placed in Biacore 3000 (Biacore), and MG10-GST fusion protein was immobilized onto the chip by amine-coupling methods. HBS-EP Buffer (Biacore) was used as the running buffer, and the flow rate was 20 μL/min. 5.5 to 175.0 nM of VB22B IgG solution was prepared using HBS-EP Buffer, and injected over each of the chip surfaces for 2 min to obtain the binding region at the respective concentrations. Then, dissociation region for the 2 minutes was measured. VB22B IgG bound to the MG10-GST fusion protein on the sensor chip was removed by injecting 20 mM HCl over the sensor chip for 1 min, and the chip was recovered. Similarly, 4.7 to 150.1 nM of VB22B sc(Fv)2, 5.3 to 168.9 nM of hVB22B q-wz5 sc(Fv)2, and 4.9 to 156.8 nM of hVB22B u2-wz4 sc(Fv)2 were prepared and injected over the chip surfaces onto which MG10-GST fusion protein was immobilized, and the measurement was carried out.\nAll the antibodies used were bivalent antibodies, and thus the sensorgrams at each concentration were obtained in the presence of both monovalent and bivalent bindings. In this context, the reaction rate constant was determined as that for the monovalent antibody by analysis using the Bivalent analyte model of BIAevaluation ver.3.1 software (Biacore). The above analysis was carried out in triplicates for each antibody. The binding rate constant (ka), dissociation rate constant (kd), and dissociation constant (KD) were determined as those for the monovalent antibody by the procedure described above. The constants are indicated below in Table 1."}, "[2]": {"target": "T2, cynomolgus monkey Mpl expressed on CHO cells (CHO-monkey Mpl) (cynomolgus monkey, UniProt P40238 26-635 (human entry))", "T2 construct": "pCXND3-monkey Mpl-His in CHO-DG44; also called monkey Mpl-His", "T2 chain": "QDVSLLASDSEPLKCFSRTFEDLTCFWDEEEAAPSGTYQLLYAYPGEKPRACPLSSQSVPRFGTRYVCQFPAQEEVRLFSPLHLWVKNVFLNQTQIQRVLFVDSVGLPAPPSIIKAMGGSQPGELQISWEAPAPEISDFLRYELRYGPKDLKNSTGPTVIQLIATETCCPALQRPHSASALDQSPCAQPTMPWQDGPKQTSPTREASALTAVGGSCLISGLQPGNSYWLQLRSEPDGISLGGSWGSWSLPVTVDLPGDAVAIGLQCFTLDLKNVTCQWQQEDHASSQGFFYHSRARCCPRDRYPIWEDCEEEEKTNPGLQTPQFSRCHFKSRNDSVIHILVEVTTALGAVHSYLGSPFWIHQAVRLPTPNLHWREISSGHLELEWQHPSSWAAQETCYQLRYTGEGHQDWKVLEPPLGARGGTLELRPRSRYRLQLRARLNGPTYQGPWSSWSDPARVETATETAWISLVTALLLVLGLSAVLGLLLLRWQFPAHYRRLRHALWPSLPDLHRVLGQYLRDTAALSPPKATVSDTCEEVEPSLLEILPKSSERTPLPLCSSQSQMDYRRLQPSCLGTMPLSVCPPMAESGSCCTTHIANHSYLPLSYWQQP", "test": "flow cytometry on CHO cells"}, "[3]": {"target": "T3, human Mpl expressed on BaF3 cells (BaF3-human Mpl) (human, UniProt P40238 26-635)", "T3 sequence": "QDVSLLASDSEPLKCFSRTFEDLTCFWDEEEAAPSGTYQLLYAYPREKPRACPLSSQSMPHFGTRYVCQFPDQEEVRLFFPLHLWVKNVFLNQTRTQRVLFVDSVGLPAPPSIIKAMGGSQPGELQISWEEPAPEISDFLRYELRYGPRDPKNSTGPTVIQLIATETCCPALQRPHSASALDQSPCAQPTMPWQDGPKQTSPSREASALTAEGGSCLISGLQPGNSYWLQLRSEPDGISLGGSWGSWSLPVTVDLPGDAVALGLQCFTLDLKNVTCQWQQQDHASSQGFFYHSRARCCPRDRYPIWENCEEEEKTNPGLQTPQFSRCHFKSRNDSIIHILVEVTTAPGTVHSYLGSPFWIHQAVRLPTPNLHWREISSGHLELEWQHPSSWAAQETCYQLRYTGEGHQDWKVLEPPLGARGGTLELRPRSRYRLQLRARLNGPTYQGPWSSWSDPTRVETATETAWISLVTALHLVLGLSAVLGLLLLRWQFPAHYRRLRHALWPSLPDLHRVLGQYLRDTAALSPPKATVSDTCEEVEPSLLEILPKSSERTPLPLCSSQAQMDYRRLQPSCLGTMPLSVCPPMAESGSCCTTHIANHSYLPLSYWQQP", "test": "cell-based or functional assay"}}, "note": "No end group written: not given here.", "data": [{"binder": "B1", "values": [{"measurement": "Kd", "setting": "[1]", "result": 11.5, "unit": "nM"}, {"measurement": "koff", "setting": "[1]", "result": 0.0011, "unit": "s⁻¹"}, {"measurement": "kon", "setting": "[1]", "result": 96000, "unit": "M⁻¹ s⁻¹"}, {"measurement": "binding result", "setting": "[2]", "result": "binds"}, {"measurement": "TPO-like agonistic activity, EC50 (growth of BaF3-human Mpl, WST-8)", "setting": "[3]", "result": "> 30", "unit": "nM"}]}]}
